Data as given in publication PMC12102759.

B1: AMOTL2 peptide 66-81 (Angiomotin-like protein 2), 16-mer library wild type / TNKS ANK (TNKS 12 ANK repeats, residues 174-649) (parent)
chain 1: LQQATRQEPQGQEHQG
chain 2: TGVPAVSGALRELLEACRNGDVSRVKRLVDAANVNAKDMAGRKSSPLHFAAGFGRKDVVEHLLQMGANVHARDDGGLIPLHNACSFGHAEVVSLLLCQGADPNARDNWNYTPLHEAAIKGKIDVCIVLLQHGADPNIRNTDGKSALDLADPSAKAVLTGEYKKDELLEAARSGNEEKLMALLTPLNVNCHASDGRKSTPLHLAAGYNRVRIVQLLLQHGADVHAKDKGGLVPLHNACSYGHYEVTELLLKHGACVNAMDLWQFTPLHEAASKNRVEVCSLLLSHGADPTLVNCHGKSAVDMAPTPELRERLTYEFKGHSLLQAAREADLAKVKKTLALEIINFKQPQSHETALHCAVASLHPKRKQVTELLLRKGANVNEKNKDFMTPLHVAAERAHNDVMEVLHKHGAKMNALDTLGQTALHRAALAGHLQTCRLLLSYGSDPSIISLQGFTAAQMGNEAVQQILSESTPIRTSD
B2: SH3BP2 peptide 408-423 (SH3 domain-binding protein 2), 16-mer library wild type / TNKS ANK (TNKS 12 ANK repeats, residues 174-649) (parent)
chain 1: PQLPHLQRSPPDGQSF
chain 2: B1 chain 2
B3: KIAA1671 peptide 600-615 (Uncharacterized protein KIAA1671), 16-mer library wild type / MDM2 SWIB (MDM2 SWIB/MDM2 domain, residues 17-125) (parent)
chain 1: TPEDDRSFQTVWATVF
chain 2: SQIPASEQETLVRPKPLLLKLLKSVGAQKDTYTMKEVLFYLGQYIMTKRLYDEKQQHIVYCSNDLLGDLFGVPSFSVKEHRKIYTMIYRNLVVVNQQESSDSGTSVSEN

Variants of: B1
Experiment: proteomic peptide phage display deep mutational scan (ProP-PD DMS): M13 P8 16-mer library selected against immobilised GST-tagged bait for four days (rounds), NGS of the eluted pools per day and pseudo-replica
Details: with TNKS ANK (TNKS 12 ANK repeats, residues 174-649); bait immobilised on MaxiSorp plates (10 µg), library pre-cleared on GST, 2 h binding at 4 °C, five washes; one round per day, days 1-4; value from days 2 and 3; keep out of graded; scale: average fractional NGS count over selection days 2 and 3

Variant	screen value
chain 1 LFQATRQEPQGQEHQG [chain 1 Q2F]	3.49e-05
chain 1 LRQATRQEPQGQEHQG [chain 1 Q2R]	0
chain 1 LQQATRQNPQGQEHQG [chain 1 E8N]	0.000167
chain 1 LQQATRQIPQGQEHQG [chain 1 E8I]	6.96e-05
chain 1 LQQATRQEPQGQEYQG [chain 1 H14Y]	8.4e-05
chain 1 LQQATRQEPQGQETQG [chain 1 H14T]	3.21e-05
chain 1 LQQATRQEPQGQEDQG [chain 1 H14D]	0
chain 1 LQQATRQEPQGQEPQG [chain 1 H14P]	6.39e-05
chain 1 RQQATRQEPQGQEHQG [chain 1 L1R]	2.19e-05
chain 1 LQQATRQEPMGQEHQG [chain 1 Q10M]	4.87e-05
chain 1 LQQATRQEPKGQEHQG [chain 1 Q10K]	0
chain 1 LQQATRQEPAGQEHQG [chain 1 Q10A]	2.19e-05
chain 1 LQQATRQEPFGQEHQG [chain 1 Q10F]	0
chain 1 LQQETRQEPQGQEHQG [chain 1 A4E]	4.24e-05
chain 1 LQQATRQEPQNQEHQG [chain 1 G11N]	5.06e-05
chain 1 LQQATRQEPQLQEHQG [chain 1 G11L]	0
chain 1 LQQATRQEYQGQEHQG [chain 1 P9Y]	0
chain 1 LQQATRQEGQGQEHQG [chain 1 P9G]	0
chain 1 LQQATRQEIQGQEHQG [chain 1 P9I]	6.68e-05
chain 1 LQQATRQELQGQEHQG [chain 1 P9L]	0

Variant	screen value
chain 1 LQQATRQESQGQEHQG [chain 1 P9S]	0
chain 1 LQQATRQEVQGQEHQG [chain 1 P9V]	9.22e-05
chain 1 LQQATRIEPQGQEHQG [chain 1 Q7I]	0.0001
chain 1 LQQATRREPQGQEHQG [chain 1 Q7R]	0
chain 1 LQQATRSEPQGQEHQG [chain 1 Q7S]	0.000105
chain 1 LQQATREEPQGQEHQG [chain 1 Q7E]	2.83e-05
chain 1 LQQATRDEPQGQEHQG [chain 1 Q7D]	2.19e-05
chain 1 LQKATRQEPQGQEHQG [chain 1 Q3K]	2.25e-05
chain 1 LQRATRQEPQGQEHQG [chain 1 Q3R]	0
chain 1 LQEATRQEPQGQEHQG [chain 1 Q3E]	9.57e-05
chain 1 LQIATRQEPQGQEHQG [chain 1 Q3I]	0.000108
chain 1 LQMATRQEPQGQEHQG [chain 1 Q3M]	3.03e-05
chain 1 LQQATRQEPQGQPHQG [chain 1 E13P]	3.32e-05
chain 1 LQQATRQEPQGQRHQG [chain 1 E13R]	0
chain 1 LQQATRQEPQGQTHQG [chain 1 E13T]	1.94e-05
chain 1 LQQATRQEPQGQWHQG [chain 1 E13W]	1.87e-05
chain 1 LQQATRQEPQGQDHQG [chain 1 E13D]	6.42e-05
chain 1 LQQATRQEPQGQGHQG [chain 1 E13G]	5.19e-05
chain 1 LQQATRQEPQGQFHQG [chain 1 E13F]	1.87e-05
chain 1 LQQATRQEPQGQKHQG [chain 1 E13K]	0

Variants of: B2
Experiment: as above
Details: with TNKS ANK (TNKS 12 ANK repeats, residues 174-649); bait immobilised on MaxiSorp plates (10 µg), library pre-cleared on GST, 2 h binding at 4 °C, five washes; one round per day, days 1-4; value from days 2 and 3; keep out of graded; scale: average fractional NGS count over selection days 2 and 3

Variant	screen value
chain 1 PQLFHLQRSPPDGQSF [chain 1 P4F]	5.23e-05
chain 1 PQLRHLQRSPPDGQSF [chain 1 P4R]	3.21e-05
chain 1 PQLKHLQRSPPDGQSF [chain 1 P4K]	0.000103
chain 1 PQLPHLQRSPPDQQSF [chain 1 G13Q]	0
chain 1 PQLPHLQRSPPDWQSF [chain 1 G13W]	0
chain 1 PQLPHLQRSPPDAQSF [chain 1 G13A]	0
chain 1 PWLPHLQRSPPDGQSF [chain 1 Q2W]	3.04e-05
chain 1 PQLPDLQRSPPDGQSF [chain 1 H5D]	5.12e-05
chain 1 PQLPMLQRSPPDGQSF [chain 1 H5M]	6.6e-05
chain 1 PQLPWLQRSPPDGQSF [chain 1 H5W]	7.66e-05
chain 1 PQLPNLQRSPPDGQSF [chain 1 H5N]	3.1e-05
chain 1 PQLPLLQRSPPDGQSF [chain 1 H5L]	0.000101
chain 1 PQLPELQRSPPDGQSF [chain 1 H5E]	9.9e-05
chain 1 PQLPALQRSPPDGQSF [chain 1 H5A]	0.000105
chain 1 PQLPHLQRGPPDGQSF [chain 1 S9G]	7.17e-05
chain 1 PQLPHLQRRPPDGQSF [chain 1 S9R]	9.97e-05
chain 1 PQLPHLQRSPIDGQSF [chain 1 P11I]	0
chain 1 PQLPHLQRSPHDGQSF [chain 1 P11H]	0
chain 1 PQLPHLQRSPTDGQSF [chain 1 P11T]	7.13e-05
chain 1 PQLPHLQRSPLDGQSF [chain 1 P11L]	0
chain 1 PQLPHLQRSPEDGQSF [chain 1 P11E]	0
chain 1 PQLPHLQRSPQDGQSF [chain 1 P11Q]	0
chain 1 PQLPHLQRSPFDGQSF [chain 1 P11F]	3.04e-05
chain 1 PQLPHLQRSPSDGQSF [chain 1 P11S]	2.19e-05
chain 1 PQLPHLQRSPMDGQSF [chain 1 P11M]	0
chain 1 PQLPHLQFSPPDGQSF [chain 1 R8F]	0

Variant	screen value
chain 1 PQLPHLQWSPPDGQSF [chain 1 R8W]	0
chain 1 PQLPHLQHSPPDGQSF [chain 1 R8H]	0
chain 1 PQLPHLQSSPPDGQSF [chain 1 R8S]	8.91e-05
chain 1 PQLPHLQYSPPDGQSF [chain 1 R8Y]	0
chain 1 PQLPHLQASPPDGQSF [chain 1 R8A]	0
chain 1 PQLPHLQRSPPDGDSF [chain 1 Q14D]	6.15e-05
chain 1 PQLPHLQRSPPDGPSF [chain 1 Q14P]	3.92e-05
chain 1 PQLPHLQRSPPDGWSF [chain 1 Q14W]	0.000114
chain 1 PQWPHLQRSPPDGQSF [chain 1 L3W]	5.02e-05
chain 1 PQDPHLQRSPPDGQSF [chain 1 L3D]	9.07e-05
chain 1 PQGPHLQRSPPDGQSF [chain 1 L3G]	6.04e-05
chain 1 PQLPHLQRSMPDGQSF [chain 1 P10M]	0.000103
chain 1 PQLPHLQRSRPDGQSF [chain 1 P10R]	5.9e-05
chain 1 PQLPHLQRSPPDGQSK [chain 1 F16K]	4.17e-05
chain 1 PQLPHLQRSPPDGQSS [chain 1 F16S]	9.92e-05
chain 1 PQLPHLPRSPPDGQSF [chain 1 Q7P]	3e-05
chain 1 PQLPHLNRSPPDGQSF [chain 1 Q7N]	0.000104
chain 1 PQLPHLRRSPPDGQSF [chain 1 Q7R]	0.000135
chain 1 PQLPHLQRSPPPGQSF [chain 1 D12P]	4.27e-05
chain 1 PQLPHLQRSPPYGQSF [chain 1 D12Y]	3.32e-05
chain 1 PQLPHLQRSPPHGQSF [chain 1 D12H]	5.06e-05
chain 1 PQLPHLQRSPPFGQSF [chain 1 D12F]	0
chain 1 PQLPHLQRSPPTGQSF [chain 1 D12T]	6.11e-05
chain 1 PQLPHLQRSPPDGQGF [chain 1 S15G]	9.21e-05
chain 1 PQLPHKQRSPPDGQSF [chain 1 L6K]	8.36e-05
chain 1 PQLPHIQRSPPDGQSF [chain 1 L6I]	6.25e-05

Variants of: B3
Experiment: as above
Details: with MDM2 SWIB (MDM2 SWIB/MDM2 domain, residues 17-125); bait immobilised on MaxiSorp plates (10 µg), library pre-cleared on GST, 2 h binding at 4 °C, five washes; one round per day, days 1-4; value from days 2 and 3; keep out of graded; scale: average fractional NGS count over selection days 2 and 3

Variant	screen value
chain 1 T10Y	0.000166
chain 1 T10Q	0.000116
chain 1 T10L	6.08e-05
chain 1 T10H	0.000113
chain 1 T10M	0.00046
chain 1 T10F	0.000114
chain 1 T10I	0.000209
chain 1 T10A	0.000165
chain 1 T10W	0.000295
chain 1 T10S	0.000471
chain 1 T10P	1.43e-05
chain 1 T10D	1.9e-05
chain 1 F16D	0
chain 1 F16W	1.6e-05
chain 1 F16Y	0
chain 1 F16I	5.77e-05
chain 1 F16M	4.28e-05
chain 1 F16G	0
chain 1 F16S	0.000197
chain 1 F16E	0

Variant	screen value
chain 1 F16A	0
chain 1 E3K	0.000111
chain 1 E3P	5.24e-05
chain 1 E3F	1.83e-05
chain 1 E3S	0.00105
chain 1 E3H	0.000765
chain 1 E3N	4.32e-05
chain 1 E3Y	0.00068
chain 1 E3G	0.000104
chain 1 E3L	0.000185
chain 1 E3T	0.000371
chain 1 E3R	0.000648
chain 1 E3I	0.000166
chain 1 E3A	0.00018
chain 1 E3W	0.000218
chain 1 E3Q	4.56e-05
chain 1 R6F	0.000483
chain 1 R6H	0.000397
chain 1 R6M	0.000232
